From PMC2702820, “Pyrin Modulates the Intracellular Distribution of PSTPIP1” (PLoS ONE, 2009)

Columns and labels:
[1] = target: PSTPIP1, endogenous, PAPA syndrome patient (human (endogenous in CD14+ cells)) (UniProt O43586); experiment: non-reducing SDS-PAGE with Western blot; lysates of CD14+ cells from controls and a PAPA patient, non-reducing conditions, probed with anti-PSTPIP1
[2] = target: the molecule itself; experiment: as above
[3] = target: the molecule itself; experiment: non-reducing SDS-PAGE; recombinant PSTPIP1 from E. coli run in the absence of added reducing agent, Coomassie stain

## PSTPIP1, endogenous, PAPA syndrome patient (from UniProt O43586 1-416) (natural protein)
[1]
  stoichiometry N: 2

B1: PSTPIP1 (proline serine threonine phosphatase-interacting protein 1), endogenous, control individuals (natural protein, human (endogenous in CD14+ cells), UniProt O43586 1-416, looked up)
chain: MMPQLQFKDAFWCRDFTAHTGYEVLLQRLLDGRKMCKDMEELLRQRAQAEERYGKELVQIARKAGGQTEINSLRASFDSLKQQMENVGSSHIQLALTLREELRSLEEFRERQKEQRKKYEAVMDRVQKSKLSLYKKAMESKKTYEQKCRDADDAEQAFERISANGHQKQVEKSQNKARQCKDSATEAERVYRQSIAQLEKVRAEWEQEHRTTCEAFQLQEFDRLTILRNALWVHSNQLSMQCVKDDELYEEVRLTLEGCSIDADIDSFIQAKSTGTEPPAPVPYQNYYDREVTPLTSSPGIQPSCGMIKRFSGLLHGSPKTTSLAASAASTETLTPTPERNEGVYTAIAVQEIQGNPASPAQEYRALYDYTAQNPDELDLSAGDILEVILEGEDGWWTVERNGQRGFVPGSYLEKL
notes: PSTPIP1, human, endogenous in CD14+ cells of control individuals (C1, C2); Major species runs at 95-96 kDa (dimer) on a non-reducing gel; minor monomer at 48 kDa and faint multimers; also called CD2BP1; source: endogenous, lysates of human CD14+ cells enriched from PBMC of control individuals
[2]
  stoichiometry N: 2

B2: Recombinant human PSTPIP1 protein expressed in E. coli (natural protein, UniProt O43586 1-416, looked up)
chain: MMPQLQFKDAFWCRDFTAHTGYEVLLQRLLDGRKMCKDMEELLRQRAQAEERYGKELVQIARKAGGQTEINSLRASFDSLKQQMENVGSSHIQLALTLREELRSLEEFRERQKEQRKKYEAVMDRVQKSKLSLYKKAMESKKTYEQKCRDADDAEQAFERISANGHQKQVEKSQNKARQCKDSATEAERVYRQSIAQLEKVRAEWEQEHRTTCEAFQLQEFDRLTILRNALWVHSNQLSMQCVKDDELYEEVRLTLEGCSIDADIDSFIQAKSTGTEPPAPVPYQNYYDREVTPLTSSPGIQPSCGMIKRFSGLLHGSPKTTSLAASAASTETLTPTPERNEGVYTAIAVQEIQGNPASPAQEYRALYDYTAQNPDELDLSAGDILEVILEGEDGWWTVERNGQRGFVPGSYLEKL
notes: PSTPIP1, human, recombinant; monomer runs at 48 kDa; the purification is not described, only that several steps of the recovery need DTT; also called recombinant PSTPIP1; source: E. coli (pHIS8 plasmid), recovered recombinant protein
[3]
  stoichiometry N: 2
